The supplement of paper PMC10567573

B1: C1orf137 (parent)
chain: LPQETNLTLKVCKPQAPQKLDPTL

Variants of: B1
Experiment: protein stability index of a GFP-peptide fusion (GPS, HEK-293T) (PSI 1-6); higher = more stable
Details: c terminus: a fixed tail appended
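Note: lentivirally expressed fusions sorted by FACS into six bins by GFP to DsRed ratio, PSI derived from sequencing read proportions per bin multiplied by bin number.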

Point of comparison: LPQETNLTLWVCKPQAPQKLDPTL, protein stability index 2.17. Against it:
- LPQETNLTLKCCKPQAPQKLDPTL — higher, 3.96
- LPQETNLTLKMCKPQAPQKLDPTL — higher, 3.77
- LPQETNLTLKYCKPQAPQKLDPTL — higher, 3.82
- LPQETNLTLKICKPQAPQKLDPTL — higher, 3.24
- LPQETNLTLKECKPQAPQKLDPTL — higher, 5.09
- LPQETNLTLKACKPQAPQKLDPTL — higher, 4.12
- LPQETNLTLKNCKPQAPQKLDPTL — higher, 4.21
- LPQETNLTLKWCKPQAPQKLDPTL — higher, 2.44
- LPQETNLTLKQCKPQAPQKLDPTL — higher, 3.32
- LPQETNLTLKLCKPQAPQKLDPTL — higher, 3.55
- LPQETNLTLKDCKPQAPQKLDPTL — higher, 4.91
- LPQETNLTLKKCKPQAPQKLDPTL — higher, 3.65
- LPQETNLTLKHCKPQAPQKLDPTL — higher, 4.08
- LPQETNLTLKPCKPQAPQKLDPTL — higher, 4.54
- LPQETNLTLKTCKPQAPQKLDPTL — higher, 3.66
- LPQETNLTLKFCKPQAPQKLDPTL — higher, 3.22
- LPQETNLTLKRCKPQAPQKLDPTL — higher, 3.05
- LPQETNLTLKSCKPQAPQKLDPTL — higher, 4.19
- LPQETNLTLKGCKPQAPQKLDPTL — higher, 3.42
- LPQETNLGLKVCKPQAPQKLDPTL — higher, 4.55
- LPQETNLMLKVCKPQAPQKLDPTL — higher, 3.69
- LPQETNLWLKVCKPQAPQKLDPTL — higher, 2.64
- LPQETNLNLKVCKPQAPQKLDPTL — higher, 4.11
- LPQETNLELKVCKPQAPQKLDPTL — higher, 4.14
- LPQETNLHLKVCKPQAPQKLDPTL — higher, 3.88
- LPQETNLDLKVCKPQAPQKLDPTL — higher, 3.21
- LPQETNLCLKVCKPQAPQKLDPTL — higher, 4.15
- LPQETNLPLKVCKPQAPQKLDPTL — higher, 4.53
- LPQETNLSLKVCKPQAPQKLDPTL — higher, 4.3
- LPQETNLFLKVCKPQAPQKLDPTL — higher, 2.9
- LPQETNLVLKVCKPQAPQKLDPTL — higher, 2.92
- LPQETNLRLKVCKPQAPQKLDPTL — higher, 3.57
- LPQETNLQLKVCKPQAPQKLDPTL — higher, 4.21
- LPQETNLALKVCKPQAPQKLDPTL — higher, 4.3
- LPQETNLKLKVCKPQAPQKLDPTL — higher, 3.57
- LPQETNLLLKVCKPQAPQKLDPTL — higher, 3.95
- LPQETNLYLKVCKPQAPQKLDPTL — higher, 2.98
- LPQETNLILKVCKPQAPQKLDPTL — higher, 2.37
- LPQEQNLTLKVCKPQAPQKLDPTL — higher, 4.33
- LPQELNLTLKVCKPQAPQKLDPTL — higher, 2.69
- LPQEVNLTLKVCKPQAPQKLDPTL — higher, 3.04
- LPQEHNLTLKVCKPQAPQKLDPTL — higher, 4
- LPQEKNLTLKVCKPQAPQKLDPTL — higher, 3.64
- LPQEINLTLKVCKPQAPQKLDPTL — higher, 2.6
- LPQEYNLTLKVCKPQAPQKLDPTL — higher, 2.88
- LPQEMNLTLKVCKPQAPQKLDPTL — higher, 3.58
- LPQEPNLTLKVCKPQAPQKLDPTL — higher, 4.59
- LPQERNLTLKVCKPQAPQKLDPTL — higher, 3.6
- LPQENNLTLKVCKPQAPQKLDPTL — higher, 3.69
- LPQESNLTLKVCKPQAPQKLDPTL — higher, 3.9
- LPQETNLTLKVCKAQAPQKLDPTL — higher, 3.59
- LPQETNLTLKVCKMQAPQKLDPTL — higher, 3.08
- LPQETNLTLKVCKDQAPQKLDPTL — higher, 4.76
- LPQETNLTLKVCKCQAPQKLDPTL — higher, 3.02
- LPQETNLTLKVCKYQAPQKLDPTL — higher, 3.37
- LPQETNLTLKVCKGQAPQKLDPTL — higher, 4.55
- LPQETNLTLKVCKRQAPQKLDPTL — higher, 4.27
- LPQETNLTLKVCKWQAPQKLDPTL — higher, 3.47
- LPQETNLTLKVCKFQAPQKLDPTL — higher, 2.71
- LPQETNLTLKVCKQQAPQKLDPTL — higher, 4.41
- LPQETNLTLKVCKEQAPQKLDPTL — higher, 4.71
- LPQETNLTLKVCKNQAPQKLDPTL — higher, 4.72
- LPQETNLTLKVCKHQAPQKLDPTL — higher, 4.07
- LPQETNLTLKVCKTQAPQKLDPTL — higher, 4.16
- LPQETNLTLKVCKVQAPQKLDPTL — higher, 3.55
- LPQETNLTLKVCKLQAPQKLDPTL — higher, 2.81
- LPQETNLTLKVCKIQAPQKLDPTL — higher, 2.76
- LPQETNLTLKVCKSQAPQKLDPTL — higher, 4.27
- LPQETNLTLKVCKKQAPQKLDPTL — higher, 4.1
- LPQETVLTLKVCKPQAPQKLDPTL — higher, 3.29
- LPQETGLTLKVCKPQAPQKLDPTL — higher, 4.6
- LPQETDLTLKVCKPQAPQKLDPTL — higher, 4.38
- LPQETKLTLKVCKPQAPQKLDPTL — higher, 3.27
- LPQETRLTLKVCKPQAPQKLDPTL — higher, 3.31
- LPQETCLTLKVCKPQAPQKLDPTL — higher, 3.3
- LPQETMLTLKVCKPQAPQKLDPTL — higher, 3.22
- LPQETLLTLKVCKPQAPQKLDPTL — higher, 3.57
- LPQETHLTLKVCKPQAPQKLDPTL — higher, 4.23
- LPQETILTLKVCKPQAPQKLDPTL — higher, 2.42
- LPQETQLTLKVCKPQAPQKLDPTL — higher, 3.94
- LPQETSLTLKVCKPQAPQKLDPTL — higher, 3.56
- LPQETFLTLKVCKPQAPQKLDPTL — higher, 3.36
- LPQETYLTLKVCKPQAPQKLDPTL — higher, 2.99
- LPQETTLTLKVCKPQAPQKLDPTL — higher, 3.71
- LPQETALTLKVCKPQAPQKLDPTL — higher, 3.88
- LPQETWLTLKVCKPQAPQKLDPTL — higher, 3.2
- LPQETELTLKVCKPQAPQKLDPTL — higher, 4.15
- LPQETNLTLKVEKPQAPQKLDPTL — higher, 4.39
- LPQETNLTLKVSKPQAPQKLDPTL — higher, 4.07
- LPQETNLTLKVKKPQAPQKLDPTL — higher, 4.43
- LPQETNLTLKVPKPQAPQKLDPTL — higher, 4.73
- LPQETNLTLKVQKPQAPQKLDPTL — higher, 4.1
- LPQETNLTLKVRKPQAPQKLDPTL — higher, 4.14
- LPQETNLTLKVWKPQAPQKLDPTL — higher, 4.28
- LPQETNLTLKVGKPQAPQKLDPTL — higher, 4.81
- LPQETNLTLKVAKPQAPQKLDPTL — higher, 5.06
- LPQETNLTLKVHKPQAPQKLDPTL — higher, 4.66
- LPQETNLTLKVVKPQAPQKLDPTL — higher, 3.65
- LPQETNLTLKVNKPQAPQKLDPTL — higher, 4.31
- LPQETNLTLKVMKPQAPQKLDPTL — higher, 4.07
- LPQETNLTLKVFKPQAPQKLDPTL — higher, 3.7
- LPQETNLTLKVTKPQAPQKLDPTL — higher, 4.62
- LPQETNLTLKVYKPQAPQKLDPTL — higher, 3.64
- LPQETNLTLKVDKPQAPQKLDPTL — higher, 4.79
- LPQETNLTLKVLKPQAPQKLDPTL — higher, 4.06
- LPQETNLTLKVIKPQAPQKLDPTL — higher, 3.9
- LPQETNLTQKVCKPQAPQKLDPTL — higher, 4.59
- LPQETNLTGKVCKPQAPQKLDPTL — higher, 4.32
- LPQETNLTYKVCKPQAPQKLDPTL — higher, 4.35
- LPQETNLTPKVCKPQAPQKLDPTL — higher, 3.69
- LPQETNLTRKVCKPQAPQKLDPTL — higher, 4.58
- LPQETNLTNKVCKPQAPQKLDPTL — higher, 4.54
- LPQETNLTCKVCKPQAPQKLDPTL — higher, 3.91
- LPQETNLTAKVCKPQAPQKLDPTL — higher, 4.14
- LPQETNLTTKVCKPQAPQKLDPTL — higher, 4.67
- LPQETNLTSKVCKPQAPQKLDPTL — higher, 3.63
- LPQETNLTFKVCKPQAPQKLDPTL — higher, 4.05
- LPQETNLTIKVCKPQAPQKLDPTL — higher, 4
- LPQETNLTEKVCKPQAPQKLDPTL — higher, 4.76
- LPQETNLTKKVCKPQAPQKLDPTL — higher, 4.16
- LPQETNLTHKVCKPQAPQKLDPTL — higher, 3.78
- LPQETNLTWKVCKPQAPQKLDPTL — higher, 3.15
- LPQETNLTDKVCKPQAPQKLDPTL — higher, 4.92
- LPQETNLTVKVCKPQAPQKLDPTL — higher, 4.14
- LPQETNLTMKVCKPQAPQKLDPTL — higher, 4.03
- LPQETNQTLKVCKPQAPQKLDPTL — higher, 4.56
- LPQETNATLKVCKPQAPQKLDPTL — higher, 4.25
- LPQETNKTLKVCKPQAPQKLDPTL — higher, 4.61
- LPQETNGTLKVCKPQAPQKLDPTL — higher, 4.48
- LPQETNNTLKVCKPQAPQKLDPTL — higher, 4.66
- LPQETNDTLKVCKPQAPQKLDPTL — higher, 4.94
- LPQETNCTLKVCKPQAPQKLDPTL — higher, 3.53
- LPQETNITLKVCKPQAPQKLDPTL — higher, 3.4
- LPQETNHTLKVCKPQAPQKLDPTL — higher, 4.51
- LPQETNPTLKVCKPQAPQKLDPTL — higher, 4.42
- LPQETNETLKVCKPQAPQKLDPTL — higher, 4.79
- LPQETNFTLKVCKPQAPQKLDPTL — higher, 2.92
- LPQETNMTLKVCKPQAPQKLDPTL — higher, 4.25
- LPQETNRTLKVCKPQAPQKLDPTL — higher, 4.67
- LPQETNYTLKVCKPQAPQKLDPTL — higher, 3.89
- LPQETNTTLKVCKPQAPQKLDPTL — higher, 4.33
- LPQETNSTLKVCKPQAPQKLDPTL — higher, 4.35
- LPQETNVTLKVCKPQAPQKLDPTL — higher, 4.21
- LPQETNLTLKVCKPDAPQKLDPTL — higher, 4.49
- LPQETNLTLKVCKPHAPQKLDPTL — higher, 3.65
- LPQETNLTLKVCKPGAPQKLDPTL — higher, 3.93
- LPQETNLTLKVCKPAAPQKLDPTL — higher, 3.91
- LPQETNLTLKVCKPEAPQKLDPTL — higher, 4.41
- LPQETNLTLKVCKPCAPQKLDPTL — higher, 3.58
- LPQETNLTLKVCKPFAPQKLDPTL — higher, 2.69
- LPQETNLTLKVCFPQAPQKLDPTL — lower, 2.11
- LPQETNLTLKVCVPQAPQKLDPTL — higher, 3.42
- LPQETNLTLKVCWPQAPQKLDPTL — higher, 2.25
- LPQETNLTLKVCSPQAPQKLDPTL — higher, 4.14
- LPQETNLTLKVCNPQAPQKLDPTL — higher, 4.03
- LPQETNLTLKVCRPQAPQKLDPTL — higher, 3.01
- LPQETNLTLKVCPPQAPQKLDPTL — higher, 4.43
- LPQETNLTLKVCIPQAPQKLDPTL — higher, 2.33
- LPQETNLTLKVCEPQAPQKLDPTL — higher, 4.69
- LPQETNLTLKVCYPQAPQKLDPTL — higher, 3.5
- LPQETNLTLKVCDPQAPQKLDPTL — higher, 4.88
- LPQETNLTLKVCHPQAPQKLDPTL — higher, 3.56
- LPQETNLTLKVCTPQAPQKLDPTL — higher, 4.06
- LPQETNLTLKVCAPQAPQKLDPTL — higher, 3.98
- LPQETNLTLKVCMPQAPQKLDPTL — higher, 3.05
- LPQETNLTLKVCCPQAPQKLDPTL — higher, 3.24
- LPQETNLTLKVCQPQAPQKLDPTL — higher, 4.14
- LPQETNLTLKVCLPQAPQKLDPTL — higher, 2.96
- LPQETNLTLKVCGPQAPQKLDPTL — higher, 4.33
- LPQETNLTLFVCKPQAPQKLDPTL — higher, 2.18
- LPQETNLTLAVCKPQAPQKLDPTL — higher, 4.61
- LPQETNLTLMVCKPQAPQKLDPTL — higher, 2.95
- LPQETNLTLPVCKPQAPQKLDPTL — higher, 4.17
- LPQETNLTLQVCKPQAPQKLDPTL — higher, 3.65
- LPQETNLTLEVCKPQAPQKLDPTL — higher, 4.5
- LPQETNLTLCVCKPQAPQKLDPTL — higher, 3.66
- LPQETNLTLDVCKPQAPQKLDPTL — higher, 4.56
- LPQETNLTLLVCKPQAPQKLDPTL — higher, 2.55
- LPQETNLTLHVCKPQAPQKLDPTL — higher, 3.48
- LPQETNLTLYVCKPQAPQKLDPTL — higher, 2.98
- LPQETNLTLNVCKPQAPQKLDPTL — higher, 4.37
- LPQETNLTLTVCKPQAPQKLDPTL — higher, 3.46
- LPQETNLTLSVCKPQAPQKLDPTL — higher, 4.01
- LPQETNLTLGVCKPQAPQKLDPTL — higher, 3.78
- LPQETNLTLVVCKPQAPQKLDPTL — higher, 2.7
- LPQETNLTLIVCKPQAPQKLDPTL — lower, 2.13
- LPQETNLTLRVCKPQAPQKLDPTL — higher, 3.03
